16 molecules from patent US11248023B2 (NEURACLE SCIENCE CO., LTD., priority 2015, dated 2022) can be followed below.

Square brackets hold non-standard residues; d marks the D form. Ends that are not written are not given here. Peptide text beside a SMILES is read from it. * marks the point of attachment. Fmoc = O=C(OCC1c2ccccc2-c2ccccc21)*

One data set deals with POMC neurons. The experiment in a line: Signaling, POMC expression and α-MSH in cultured POMC neurons (Western blotting, mRNA). The following applies: Fmoc sextuple mutant 1 μM, insulin 10 nM. The format is cell-based. The method, then: An increase in the potency of appetite-regulating brain neurons by administration of the GALR2 agonist was determined by immunohistochemistry (IHC). […] POMC neurons known to regulate appetite in the arcuate nucleus were cultured in vitro, treated with the Fmoc sextuple mutant (1 μM) and 10 nM insulin, washed with PBS, and lysed by the addition of 100 μl of lysis buffer (0.1% triton X-100, 0.2M Tris, pH 8.0) at room temperature for 20 min.
Proteins were extracted from cells and analyzed by Western blotting. […] POMC neurons were treated the GALR2 agonist and mRNA was then extracted. Increases in the number of the POMC neurons and the level of α-MSH were observed (FIGS. 11B to 11E).

Data set [1] is described as follows: Stability in 100% fetal bovine serum, residual potency via IP3 production in GALR2-expressing cells. The note with it: 37° C.; for stability in serum (100% FBS): 0-72 h, IP3 production in GALR2-expressing cells.
Method: The stability of the spexin-based mutant peptides was investigated. To this end, first, each modified mutant peptide at an initial concentration 10 μM was allowed to react in 100% fetal bovine serum (FBS) at 37° C. for 0, 3, 6, 12, 24, 48, and 72 h. Thereafter, the potencies of the mutant peptide toward GALR2 were determined via inositol 1,4,5-triphosphate (IP3) production in GALR2-expressing cells. For the IP3 assay, cells were seeded in 12-well plates at a density of 2.5×10^5 cells/well and then the next day, cells were treated with a mixture of 1 μg of GALR2-encoding plasmid DNA and Lipofectamine 2000 (Invitrogen). On day following treatment, cells were incubated in M199 media containing 1% FBS, 1% L-glutamine, 1% antibiotic, and myo-^3H inositol 1 μCi/well for 20 h to radioactively label inositol phosphate. After this stage was finished, cells were allowed to react in buffer A (140 mM NaCl, 20 mM Hepes, 4 mM KCl, 8 mM D-glucose, 1 mM MgCl2, 1 mM CaCl2), 1 mg/ml free fatty acid bovine serum albumin, and 10 mM LiCl at pH 7.2) for 30 min. After the mutant peptide was allowed to react in 100% FBS, cells were treated with the mutant peptide for 40 min at 37° C. Media was removed, and reactions were terminated by addition of 1 ml of 10 mM cold formic acid to each well. The plates were allowed to stand at 4° C. for 30 min. Then, the resulting extracts were transferred to 6-mL plastic tubes containing 500 μl AG1-8X anion exchange columns. The tubes were gently mixed with a vortexer, and the supernatants were removed from the labeled mixture. Two washes with 1 ml of triple-distilled water were performed followed by two additional washes with 60 mM ammonium formate/5 mM sodium tetraborate. The radioactively labeled mixture was eluted from the column with 1 ml of 1 M ammonium formate/0.1 M formic acid (1 mL), and 800 μl from the elution were taken from each tube and transferred into scintillation vials. Then, 2 ml of scintillation cocktail solution (Ultima Gold™, Perkin Elmer, Waltham Mass., USA) was added to each sample. The radioactivity of the mixture solution of the radioactively labeled mixture and the scintillation cocktail solution was measured using a TRI carb 2100TR liquid scintillation analyzer (Packard).
In a further data set the target is T1, GALR2 (Homo sapiens, UniProt O43603).
T1 construct: expressed in transfected cells
T1 sequence (O43603 1-387): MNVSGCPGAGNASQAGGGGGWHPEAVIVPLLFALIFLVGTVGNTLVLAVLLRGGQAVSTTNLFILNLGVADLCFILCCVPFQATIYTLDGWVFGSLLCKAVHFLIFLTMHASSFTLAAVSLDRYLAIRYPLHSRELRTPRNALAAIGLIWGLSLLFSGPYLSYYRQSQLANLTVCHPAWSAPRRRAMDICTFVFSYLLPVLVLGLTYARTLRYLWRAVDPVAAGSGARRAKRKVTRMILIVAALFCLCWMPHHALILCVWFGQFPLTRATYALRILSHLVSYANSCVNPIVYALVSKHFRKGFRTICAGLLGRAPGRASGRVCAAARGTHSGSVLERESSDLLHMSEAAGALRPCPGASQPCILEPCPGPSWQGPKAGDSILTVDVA
The experiment in a line: SRE-luc assay in HEK293-Gqi cells expressing GALR2. The format is cell-based. The following applies: for potency toward GALR2: SRE-luc, HEK293-Gqi cells, compared with spexin.

For another data set, the target named is T2, GALR3 (Homo sapiens, UniProt O60755).
T2 construct: expressed in transfected cells
T2 sequence (O60755 1-368): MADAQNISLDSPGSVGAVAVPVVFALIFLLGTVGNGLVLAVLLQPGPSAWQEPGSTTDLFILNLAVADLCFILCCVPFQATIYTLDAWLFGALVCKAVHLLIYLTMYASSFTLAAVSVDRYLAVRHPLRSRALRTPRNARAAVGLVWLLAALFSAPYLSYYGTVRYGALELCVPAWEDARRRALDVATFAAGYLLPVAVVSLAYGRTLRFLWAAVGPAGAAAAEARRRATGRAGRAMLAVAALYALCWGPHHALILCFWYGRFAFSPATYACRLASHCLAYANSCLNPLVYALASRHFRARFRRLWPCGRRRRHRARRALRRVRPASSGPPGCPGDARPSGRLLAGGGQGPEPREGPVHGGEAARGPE
Briefly: SRE-luc assay in HEK293-Gqi cells expressing GALR3. The following applies: compared with spexin. Type of data set: cell-based.

From the text for GALR3: The HEK293-Gqi stable cell line is a cell line in which the C-terminus of Gq is substituted with 3 amino acids of G to convert the signals of G to Gq signaling pathways. […] GALR subtypes 1 and 3 induce inhibitory G-coupled signaling, while GALR subtype 2 triggers stimulatory Gq-coupled signaling. This difference explains the use of the HEK293-Gqi stable cell line in which the C-terminus of Gq is substituted with 3 amino acids of G to convert the signals of Gi to Gq signaling pathways.
GALR subtypes 1 and 3 induce inhibitory G-coupled signaling, while GALR subtype 2 triggers stimulatory Gq-coupled signaling. This difference explains the use of the HEK293-Gqi stable cell line in which the C-terminus of Gq is substituted with 3 amino acids of G to convert the signals of G to Gq signaling pathways. The activities of the receptors were measured using an SRE-luc assay system designed to express luciferase (luc) by serum responsive element (SRE) promoters. Light caused by a reaction between expressed luciferase and luciferin as a substrate was detected using a luminometer so that receptor subtype-specific or ligand-specific cellular activities were observed. One day after HEK293-Gqi cells were seeded in 48-well plates at a density of 2×10^4 cells/well, plasmid DNA and SRE-luc plasmid DNA, which encode GALR2 and GALR3, respectively, were mixed in a ratio of 1:1 (75 ng+75 ng)/well, and treated with Effectene reagent (2 μl/well). After 3 h, media were replaced with DMEM media supplemented with 10% FBS. After 24 h, the DMEM media were replaced with FBS-free DMEM media. After 16 h, each constructed spexin-based mutant peptide was further incubated at 37° C. for 6 h. After this stage was finished, cells were washed with PBS and lysed by the addition of 100 μl of lysis buffer (0.1% triton X-100, 0.2M Tris, pH 8.0) at room temperature for 20 min. The luciferase activity was determined using a synergy 2 Multi-mode microplate reader (BioTek, Winooski, Vt., USA) with automatic injection of a luciferin solution (0.5 M MgCl2, 0.1 M ATP, 0.05 M D-luciferin, 1 M KH2PO4, pH 7.8).

On to `CC(C)C[C@H](NC(=O)[C@H](C)NC(=O)[C@H](C)NC(=O)[C@H](CC(N)=O)NC(=O)[C@@H](C)NC(=O)[C@@H](NC(=O)[C@H](Cc1c[nH]c2ccccc12)NC(=O)[C@H](CC(N)=O)NC(=O)OCC1c2ccccc2-c2ccccc21)[C@@H](C)O)C(=O)N[C@@H](Cc1ccc(O)cc1)C(=O)N[C@@H](CC(C)C)C(=O)N[C@@H](Cc1ccccc1)C(=O)NCC(=O)N1CCC[C@H]1C(=O)N[C@H](CCC(N)=O)C(N)=O` [Fmoc-se] (Fmoc-NWT[dA]NAALYLFGP[dQ]-NH2), for which, in the data set on POMC neurons, the AKT phosphorylation result is recorded as “only the ERK pathway was phosphorylated” and the ERK phosphorylation result is on record as “phosphorylated”. In addition, in data set [1], the “stability in serum (100% FBS)” value was “increased stability”. Also, the “specificity for GALR2” value at GALR2 (GALR2 versus GALR3) is listed as “specificity for GALR2”. Consider “[Asn^5]: spexin-based single mutant peptide, asparagine at position 5, SEQ ID NO: 23 (NWTPNAMLYLKGAQ; [N5]-SPX)”, for which the “potency toward GALR3” value with GALR3 is reported as “decreased potency toward GALR3”. The “potency toward GALR2” value with GALR2 is given as “maintained its potency toward GALR2 without a substantial difference”. In the case of “[Gly′]: spexin-based mutant peptide, Asn1 replaced with glycine, SEQ ID NO: 12 (GWTPQAMLYLKGAQ; [G1]-SPX)”, the “potency toward GALR3” value with GALR3 is “maintained their potencies toward both receptors without differences from those of spexin”. Also, the “potency toward GALR2” value with GALR2 is “maintained their potencies toward both receptors without differences from those of spexin”. In the case of “[Leu^4]: spexin-based mutant peptide, leucine at position 4, SEQ ID NO: 20 (NWTLQAMLYLKGAQ; [L4]-SPX)”, the “potency toward GALR3” value with GALR3 is reported as “maintained their potencies toward both receptors without differences from those of spexin”. In the data set with GALR2, the “potency toward GALR2” value was “maintained their potencies toward both receptors without differences from those of spexin”. Turning to “[dN^1]: spexin-based mutant peptide, Asn1 replaced with D-amino acid, SEQ ID NO: 9”, the “potency toward GALR3” value in the data set with GALR3 was “slightly increased the potency”. For the same molecule, the “potency toward GALR2” value with GALR2 is “slightly increased the potency”.

“[Leu^11]: spexin-based mutant peptide, leucine at position 11, SEQ ID NO: 32 (NWTPQAMLYLLGAQ; [L11]-SPX)”: in the data set with GALR3, the “potency toward GALR3” value is “decreased potency toward GALR3”. For the molecule “pQ: spexin with Asn1 replaced with pyroglutamate, SEQ ID NO: 10”, the “potency toward GALR3” value with GALR3 is “no influence”. For the same molecule, the “potency toward GALR2” value with GALR2 is recorded as “no influence”. Take `NC(=O)NCCC[C@H](N)C(=O)O` [Cit]: the “potency toward GALR3” value at GALR3 is “no influence”. Further, the “potency toward GALR2” value at GALR2 is recorded as “no influence”. For “[Gly^8]: spexin-based mutant peptide, leucine at position 8 replaced with glycine, SEQ ID NO: 26 (NWTPQAMGYLKGAQ; [G8]-SPX)”, in the data set with GALR3, the “potency toward GALR3” value was “decreased potencies”. The “potency toward GALR2” value with GALR2 is “decreased potencies”. For alanine, at GALR3, the “potency toward GALR3” value is “decreased potency toward GALR3”. Besides, on GALR2, the “potency toward GALR2” value is listed as “maintained its potency toward GALR2 without a substantial difference”.

In the case of “[Phe^11]: spexin-based mutant peptide, phenylalanine at position 11, SEQ ID NO: 31 (NWTPQAMLYLFGAQ; [F11]-SPX)”, the “potency toward GALR3” value with GALR3 is on record as “decreased potency toward GALR3”. Besides, the “potency toward GALR2” value with GALR2 is “maintained its potency toward GALR2 without a substantial difference”. Consider “[Pro^13]: spexin-based mutant peptide, proline at position 13, SEQ ID NO: 39 (NWTPQAMLYLKGPQ; [P13]-SPX)”, for which, in the data set with GALR3, the “potency toward GALR3” value is given as “decreased potency toward GALR3”. Besides, the “potency toward GALR2” value in the data set with GALR2 is on record as “maintained its potency toward GALR2 without a substantial difference”.

Turning to “Fmoc: spexin modified with Fmoc at position 1, SEQ ID NO: 45”, the “potency toward GALR3” value with GALR3 was “no influence”. Besides, in the data set with GALR2, the “potency toward GALR2” value was “no influence”. Take `CSCC[C@H](NC(=O)[C@H](C)NC(=O)[C@H](CCC(N)=O)NC(=O)[C@@H]1CCCN1C(=O)[C@@H](NC(=O)[C@H](Cc1c[nH]c2ccccc12)NC(=O)[C@@H](N)CC(N)=O)[C@@H](C)O)C(=O)N[C@@H](CC(C)C)C(=O)N[C@@H](Cc1ccc(O)cc1)C(=O)N[C@@H](CC(C)C)C(=O)N[C@@H](CCCCN)C(=O)NCC(=O)N[C@@H](C)C(=O)N[C@@H](CCC(N)=O)C(N)=O` [spexin, reference compound]: the “potency toward GALR2 (IP3 production) remaining after reaction in serum” value in data set [1] (100% FBS, initial 10 μM, within 12 h) is at most 80%. In the case of insulin [reference compound], in the data set with POMC neurons, the AKT phosphorylation result is “phosphorylated” and the ERK phosphorylation result is reported as “phosphorylated”. Consider “NWTPNAALYLFGPQ-NH2 (C-terminus assumed) [Qu]”, for which the “stability in serum (100% FBS)” value in data set [1] is reported as “rapidly degraded compared to the wild-type spexin”.
